# Test results reported in US20230051538A1 (UNIVERSITY OF BRITISH COLUMBIA, published 2023).
# Read-outs that look alike come from different tables or passages of the source. Where no end group is shown, it is not given here.
# T1: cyclo(CGGTKEQGGGG)-BSA (also: conjugated to BSA via maleimide-based coupling)
# T1 construct: also called (2,4)-C-BSA; 2,4-C-BSA
# T1 peptide: cyclo(CGGTKEQGGGG)
# T2: cyclo(CGTKEQGGGG)-BSA (also: conjugated to BSA via maleimide-based coupling)
# T2 construct: also called (1,4)-C-BSA; 1,4-C-BSA
# T2 peptide: cyclo(CGTKEQGGGG)
# T3: cyclo(CGGTKEQGG)-BSA (also: conjugated to BSA via maleimide-based coupling)
# T3 construct: also called (2,2)-C-BSA; (2, 2) C-BSA
# T3 peptide: cyclo(CGGTKEQGG)
# T4: cyclo(CGGTKEQGGGG), free (cyclized via a head-to-tail (C-G) amide bond)
# T4 construct: free cyclic peptide, not conjugated; also called (2,4)-C-FREE
# T4 peptide: CGGTKEQGGGG
# T5: cyclo(CGGGEKTKGG)-BSA (also: conjugated to BSA via maleimide-based coupling)
# T5 construct: also called ASPEP(3,2)-C-BSA
# T5 peptide: cyclo(CGGGEKTKGG)
# T6: Linear CGGGEKTKGG-BSA (also: conjugated to BSA)
# T6 construct: linear peptide-BSA screening antigen; also called ASPEP(3,2)-L-BSA
# T6 peptide: CGGGEKTKGG
# T7: cyclo(CGGGGEKTKGG)-BSA (also: conjugated to BSA)
# T7 construct: also called ASPEP(4,2)-C-BSA
# T7 peptide: cyclo(CGGGGEKTKGG)
# T8: cyclo(CGGGGEKTKGG), free (cyclized via a head-to-tail (C-G) amide bond)
# T8 construct: free cyclic 4,2 construct; also called 4,2-Free-C
# T8 peptide: CGGGGEKTKGG
# T9: cyclo(CGTKEQGGGG), free (cyclized via a head-to-tail (C-G) amide bond)
# T9 construct: free cyclic peptide, not conjugated; also called (1,4)-C-Free
# T9 peptide: CGTKEQGGGG
# T10: Linear CGGTKEQGG-BSA (also: conjugated to BSA)
# T10 construct: linear peptide-BSA screening antigen; also called (2,2)-L-BSA; (2, 2) L-BSA
# T10 peptide: CGGTKEQGG
# B1: 12G1 (antibody, V domains shown)
# VH: QIQLVQSGPELRKPGETVRISCKASGYTFTTAGMQWVQKMPGKGLKWIGWINTHSGVPKYAEDFKGRFAFSLETSASTAYLQISNLKNEDTATYFCARTSWAPYWGQGTLVTVSA
# VL: not shown
# B2: 11B6 (antibody, V domains shown)
# VH: QVQLQQSGAELMKPGASVKISCKATGYTFSSYWVEWVKLRPGHGLEWIGEIFPGSGSANYNEKFKGKATFTADTSSNTAYMQLSSLTSEDSAVYYCTSRWYPDYFEYWGQGTTLTVSS
# VL: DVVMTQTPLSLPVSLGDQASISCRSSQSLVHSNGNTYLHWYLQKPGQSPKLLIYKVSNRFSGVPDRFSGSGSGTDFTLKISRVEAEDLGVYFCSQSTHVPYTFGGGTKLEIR
# B3: 10D5 (antibody, V domains shown)
# VH: EVQLQQSGAELVRPGALVKLSCKGSGFNIKDYYMSWVKQRPEQGLEWIGWIDPENDNTIYDSKFQGKASITADTSSNTAYLQFSSLTPEDTAVYYCAMGGFTYWGQGTLVTVSA
# VL: not shown
# Legend:
# [1] = target: T11, alpha-synuclein sonicated preformed fibrils (soluble fibrils) (human, UniProt P37840 1-140); experiment: SPR, antibody immobilized, kinetic fitting, 1:1 model
# [2] = target: T12, alpha-synuclein oligomers (UniProt P37840 1-140); experiment: as above
# cyclo(CGGTKEQGGGG)-BSA [3] = target: T1, cyclo(CGGTKEQGGGG)-BSA; experiment: indirect ELISA
# cyclo(CGTKEQGGGG)-BSA [4] = target: T2, cyclo(CGTKEQGGGG)-BSA; experiment: indirect ELISA
# cyclo(CGGTKEQGG)-BSA [5] = target: T3, cyclo(CGGTKEQGG)-BSA; experiment: indirect ELISA
# [6] = target: T11, alpha-synuclein sonicated preformed …; experiment: cell-based or functional assay
# [7] = target: T12, alpha-synuclein oligomers; experiment: cell-based or functional assay
# [8] = target: T11, alpha-synuclein sonicated preformed …; experiment: SPR, antibody immobilized (~5000 RU), serial dilutions of analyte
# [9] = target: T11, alpha-synuclein sonicated preformed …; experiment: Millipore SMC, antibody-coated magnetic particles, detection with labeled 4D6
# [10] = target: T12, alpha-synuclein oligomers; experiment: as above
# HSA [11] = target: T13, HSA (human, UniProt P02768 25-609); experiment: indirect ELISA
# T13 construct: irrelevant antigen in ELISA; read as human serum albumin; also called Hum; SA; HAS
# cyclo(CGGTKEQGGGG)-BSA [12] = target: T1, cyclo(CGGTKEQGGGG)-BSA; experiment: indirect ELISA
# Human Transferrin [13] = target: T14, Human Transferrin (human, UniProt P02787 20-698); experiment: indirect ELISA
# T14 construct: irrelevant antigen in ELISA; also called HT
# T14 sequence (P02787 20-698 limits assumed): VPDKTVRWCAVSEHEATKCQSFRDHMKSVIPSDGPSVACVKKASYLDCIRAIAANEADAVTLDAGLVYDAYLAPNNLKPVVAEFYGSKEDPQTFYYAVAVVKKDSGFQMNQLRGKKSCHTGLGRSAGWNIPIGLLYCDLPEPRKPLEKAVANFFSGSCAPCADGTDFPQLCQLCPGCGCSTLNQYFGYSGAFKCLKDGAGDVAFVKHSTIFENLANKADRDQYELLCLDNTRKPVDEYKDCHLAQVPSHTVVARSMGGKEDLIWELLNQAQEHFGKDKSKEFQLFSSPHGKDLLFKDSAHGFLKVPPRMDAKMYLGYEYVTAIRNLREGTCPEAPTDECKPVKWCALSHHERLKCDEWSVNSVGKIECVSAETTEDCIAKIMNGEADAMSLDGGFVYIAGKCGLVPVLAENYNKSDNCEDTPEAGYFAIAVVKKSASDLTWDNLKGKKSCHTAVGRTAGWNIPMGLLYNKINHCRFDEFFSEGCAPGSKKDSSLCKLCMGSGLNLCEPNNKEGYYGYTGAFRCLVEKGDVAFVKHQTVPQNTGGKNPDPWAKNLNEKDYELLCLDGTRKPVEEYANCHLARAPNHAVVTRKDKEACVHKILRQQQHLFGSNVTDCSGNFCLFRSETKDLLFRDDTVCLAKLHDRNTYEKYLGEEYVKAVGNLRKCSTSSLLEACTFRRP
# [14] = target: T15, Bovine serum albumin (BSA) (bovine, UniProt P02769 25-607); experiment: indirect ELISA
# T15 construct: carrier protein alone as ELISA control
# T15 sequence (P02769 25-607 limits assumed): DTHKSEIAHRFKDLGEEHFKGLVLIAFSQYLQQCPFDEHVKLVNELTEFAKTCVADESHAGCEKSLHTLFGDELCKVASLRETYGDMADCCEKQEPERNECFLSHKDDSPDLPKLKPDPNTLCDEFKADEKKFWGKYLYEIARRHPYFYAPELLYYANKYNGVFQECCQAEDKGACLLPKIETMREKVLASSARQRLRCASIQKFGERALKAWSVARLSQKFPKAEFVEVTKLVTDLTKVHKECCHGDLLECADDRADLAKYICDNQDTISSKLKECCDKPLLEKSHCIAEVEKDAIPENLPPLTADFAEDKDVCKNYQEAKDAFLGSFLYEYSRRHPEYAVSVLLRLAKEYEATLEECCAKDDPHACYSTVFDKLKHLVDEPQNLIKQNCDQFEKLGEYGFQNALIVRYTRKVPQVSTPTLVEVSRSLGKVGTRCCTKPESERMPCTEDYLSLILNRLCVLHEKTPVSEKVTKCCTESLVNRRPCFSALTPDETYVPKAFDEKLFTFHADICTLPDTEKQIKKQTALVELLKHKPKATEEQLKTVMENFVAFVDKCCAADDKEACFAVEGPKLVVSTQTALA
# cyclo(CGGTKEQGGGG), free = target: T4, cyclo(CGGTKEQGGGG), free; experiment: indirect ELISA
# cyclo(CGGGEKTKGG)-BSA = target: T5, cyclo(CGGGEKTKGG)-BSA; experiment: indirect ELISA
# Linear CGGGEKTKGG-BSA = target: T6, Linear CGGGEKTKGG-BSA; experiment: indirect ELISA
# [15] = target: T16, human complement factor H (HCFH) (human, UniProt P08603 19-1231); experiment: indirect ELISA
# T16 construct: unrelated protein in ELISA
# T16 sequence (P08603 19-1231 limits assumed): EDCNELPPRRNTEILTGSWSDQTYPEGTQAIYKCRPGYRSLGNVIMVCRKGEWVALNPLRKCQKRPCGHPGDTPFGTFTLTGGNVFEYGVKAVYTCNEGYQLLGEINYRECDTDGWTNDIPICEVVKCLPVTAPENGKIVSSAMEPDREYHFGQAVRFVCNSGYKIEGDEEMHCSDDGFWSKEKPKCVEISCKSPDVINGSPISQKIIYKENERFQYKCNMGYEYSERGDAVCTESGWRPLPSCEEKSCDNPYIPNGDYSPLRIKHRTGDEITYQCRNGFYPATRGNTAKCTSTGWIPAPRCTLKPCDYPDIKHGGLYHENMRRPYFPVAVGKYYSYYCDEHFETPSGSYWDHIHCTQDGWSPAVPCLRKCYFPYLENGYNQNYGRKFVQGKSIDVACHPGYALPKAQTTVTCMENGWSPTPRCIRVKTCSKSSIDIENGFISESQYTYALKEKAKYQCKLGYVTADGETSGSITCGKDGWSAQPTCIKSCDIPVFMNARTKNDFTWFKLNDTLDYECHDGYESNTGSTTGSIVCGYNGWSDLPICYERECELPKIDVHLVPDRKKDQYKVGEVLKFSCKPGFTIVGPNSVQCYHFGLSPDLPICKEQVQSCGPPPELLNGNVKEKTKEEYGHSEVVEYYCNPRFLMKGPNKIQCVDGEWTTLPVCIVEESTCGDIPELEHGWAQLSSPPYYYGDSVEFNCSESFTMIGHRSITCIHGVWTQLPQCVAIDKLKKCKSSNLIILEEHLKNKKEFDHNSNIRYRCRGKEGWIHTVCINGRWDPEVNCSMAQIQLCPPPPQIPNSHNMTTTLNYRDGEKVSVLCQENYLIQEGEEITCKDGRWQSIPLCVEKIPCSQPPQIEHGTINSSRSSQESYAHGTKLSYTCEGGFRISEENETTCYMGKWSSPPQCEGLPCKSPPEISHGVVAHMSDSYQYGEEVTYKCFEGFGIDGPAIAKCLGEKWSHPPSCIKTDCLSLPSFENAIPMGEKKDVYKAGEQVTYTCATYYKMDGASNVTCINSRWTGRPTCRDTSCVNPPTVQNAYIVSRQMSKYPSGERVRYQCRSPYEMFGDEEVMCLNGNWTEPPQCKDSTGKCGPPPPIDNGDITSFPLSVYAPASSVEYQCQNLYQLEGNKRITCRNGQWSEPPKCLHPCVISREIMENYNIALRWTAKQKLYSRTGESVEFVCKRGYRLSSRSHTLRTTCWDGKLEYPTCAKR
# Human Transferrin [16] = target: T14, Human Transferrin; experiment: indirect ELISA; remark: listed apart in the source
# [17] = target: T15, Bovine serum albumin (BSA); experiment: indirect ELISA; remark: listed apart in the source
# cyclo(CGGGGEKTKGG)-BSA = target: T7, cyclo(CGGGGEKTKGG)-BSA; experiment: indirect ELISA
# cyclo(CGGGGEKTKGG), free = target: T8, cyclo(CGGGGEKTKGG), free; experiment: indirect ELISA
# HSA [18] = target: T13, HSA; experiment: indirect ELISA; remark: listed apart in the source
# cyclo(CGTKEQGGGG), free [19] = target: T9, cyclo(CGTKEQGGGG), free; experiment: indirect ELISA
# Human Transferrin [20] = target: T14, Human Transferrin; experiment: indirect ELISA; remark: listed apart in the source
# [21] = target: T15, Bovine serum albumin (BSA); experiment: indirect ELISA; remark: listed apart in the source
# cyclo(CGTKEQGGGG), free [22] = target: T9, cyclo(CGTKEQGGGG), free; experiment: indirect ELISA
# cyclo(CGGTKEQGGGG)-BSA [23] = target: T1, cyclo(CGGTKEQGGGG)-BSA; experiment: indirect ELISA
# cyclo(CGTKEQGGGG)-BSA [24] = target: T2, cyclo(CGTKEQGGGG)-BSA; experiment: indirect ELISA
# Linear CGGTKEQGG-BSA = target: T10, Linear CGGTKEQGG-BSA; experiment: indirect ELISA
# cyclo(CGGTKEQGG)-BSA [25] = target: T3, cyclo(CGGTKEQGG)-BSA; experiment: indirect ELISA
binder,measurement,setting,value
B1,Kd,[1],0.02 µM
same,koff,[1],5.62e-05 s⁻¹
same,kon,[1],2820 M⁻¹ s⁻¹
same,Kd,[2],1.61 µM
same,koff,[2],0.00155 s⁻¹
same,kon,[2],966 M⁻¹ s⁻¹
same,ELISA reading,cyclo(CGGTKEQGGGG)-BSA [3],0.756
same,ELISA reading,cyclo(CGTKEQGGGG)-BSA [4],2.07
same,ELISA reading,cyclo(CGGTKEQGG)-BSA [5],1.61
same,"endogenous phosphorylated α-syn aggregates in neurons exposed to PFFs, antibody at 0.05 µM",[6],148 % of the control
same,"dopaminergic neuron survival, antibody at 250 nM",[7],90.6 % of the control
same,"fold binding affinity, soluble fibril relative to monomer",[8],> 50 fold
same,fold selectivity for fibrils versus monomers (from LLoQ),[9],175000 fold
same,fold selectivity for oligomers versus monomers (from LLoQ),[10],35000 fold
same,ELISA reading,HSA [11],0.052
same,ELISA reading,cyclo(CGGTKEQGGGG)-BSA [12],1.01
same,ELISA reading,Human Transferrin [13],0.071
same,ELISA reading,[14],0.06
same,ELISA reading,"cyclo(CGGTKEQGGGG), free",0.437
B2,ELISA reading,cyclo(CGGGEKTKGG)-BSA,0.047
same,ELISA reading,Linear CGGGEKTKGG-BSA,0.044
same,ELISA reading,[15],0.042
same,ELISA reading,Human Transferrin [16],0.051
same,ELISA reading,[17],0.041
same,ELISA reading,cyclo(CGGGGEKTKGG)-BSA,1.59
same,ELISA reading,"cyclo(CGGGGEKTKGG), free",1.27
same,"dopaminergic neuron survival, antibody at 250 nM",[7],81 % of the control
B3,"dopaminergic neuron survival, antibody at 250 nM",[7],88.9 % of the control
same,ELISA reading,HSA [18],0.065
same,ELISA reading,"cyclo(CGTKEQGGGG), free [19]",1.25
same,ELISA reading,Human Transferrin [20],0.06
same,ELISA reading,[21],0.066
same,ELISA reading,"cyclo(CGTKEQGGGG), free [22]",1.25
same,ELISA reading,cyclo(CGGTKEQGGGG)-BSA [23],1.95
same,ELISA reading,cyclo(CGTKEQGGGG)-BSA [24],2.04
same,ELISA reading,Linear CGGTKEQGG-BSA,0.045
same,ELISA reading,cyclo(CGGTKEQGG)-BSA [25],0.064
same,fold selectivity for fibrils versus monomers (from LLoQ),[9],11200 fold
same,fold selectivity for oligomers versus monomers (from LLoQ),[10],9300 fold
